# Measured values published in patent US6824991B2, “Human bad polypeptides, encoding nucleic acids and methods of use” (IDUN Pharmaceuticals Inc., priority 1996, dated 2004).
# T1: Bad (Homo sapiens, UniProt Q92934)
# T1 construct: expressed in transfected cells; host or cells: yeast strain EGY191
# T1 sequence (Q92934 1-168): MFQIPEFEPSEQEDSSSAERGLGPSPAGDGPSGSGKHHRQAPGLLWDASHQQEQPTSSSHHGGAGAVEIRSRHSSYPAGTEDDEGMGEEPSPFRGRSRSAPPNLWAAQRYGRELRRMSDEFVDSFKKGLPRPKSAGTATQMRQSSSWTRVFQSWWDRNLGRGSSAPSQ
# T2: Bak (Homo sapiens, UniProt Q16611)
# T2 construct: expressed in transfected cells; host or cells: yeast strain EGY191
# T2 sequence (Q16611 1-190 limits assumed): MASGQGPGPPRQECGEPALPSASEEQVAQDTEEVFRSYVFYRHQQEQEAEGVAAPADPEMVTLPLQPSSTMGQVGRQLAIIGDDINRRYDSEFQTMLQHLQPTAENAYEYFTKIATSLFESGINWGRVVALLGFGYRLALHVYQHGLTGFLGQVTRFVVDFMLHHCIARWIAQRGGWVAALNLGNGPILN
# B1: human Bad: human Bcl-xL/Bcl-2 associated death promoting polypeptide, SEQ ID NO:2, encoded by cDNA clone BM1 (protein, listed as Homo sapiens)
# chain: T1 sequence (Q92934 1-168)
# B2: 6HBad: full length human Bad with a six residue Histidine tag, expressed from pET-15 6H Bad in E. coli (protein)
# chain: T1 sequence (Q92934 1-168)
# modifications: left off: small tags and cut ends
# Tests used:
# Bax = target: T3, Bax (Homo sapiens, UniProt Q07812); experiment: yeast two-hybrid assay, human Bad bait with Bax prey; format: binding; settings: yeast strain EGY191, LexA-Bad bait, B42 prey, FIG. 3
# T3 construct: expressed in transfected cells; host or cells: yeast strain EGY191
# T3 sequence (Q07812 1-174 limits assumed): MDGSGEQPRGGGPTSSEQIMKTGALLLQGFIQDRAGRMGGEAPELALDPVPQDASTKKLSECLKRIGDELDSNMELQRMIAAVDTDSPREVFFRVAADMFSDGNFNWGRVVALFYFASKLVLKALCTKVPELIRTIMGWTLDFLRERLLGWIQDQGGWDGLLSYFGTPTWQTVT
# Excerpt: (§1) To assess whether Bcl-2 family members bind to or otherwise interact with human Bad and to map their binding domains, a yeast two-hybrid system was employed using the above described clones. Briefly, the full length human Bad sequence was subcloned into the yeast 2-hybrid vector pEGE202, or “bait-vector” to express Bad as a fusion protein with the DNA-binding protein LexA (Ruden et al., Nature (1991) 350:426-430). Human Bcl-2, Bcl-X, Bax, Bak and Bad were similarly cloned into the yeast 2-hybrid vector pJG4-5, or “prey-vector” to expressed these Bcl-2 family members as fusion proteins with the transcriptional activator B42 (Gyuris et al., Cell (1993) 75:791-803). Briefly, the full length human Bad sequence was amplified by PCR and subcloned into the bait-vector. For the PCR reaction we used the following primers: 5′ATCAGTGAATTCACTATGTTCCAGATCCCA GAC3′ (SEQ ID NO: 4) and 5′ATCGATCTCGAGTCACTGGGAGGGGGCGGA GCT3′ (SEQ ID NO: 5). […]
# (§2) To determine if human Bad binds to any of the above Bcl-2 family members, the Bad-bait plasmid was cotransformed with every prey plasmid and the reporter plasmid p18-34 into the yeast strain EGY191. […] The reaction was stopped with 0.4 M NaOH and the plate was read at an OD 420 nm. Protein-protein interaction was measured as beta-galactosidase activity using the following equation: OD 420:(OD 600×0.1 ml×ONPG reaction time).
# Bad = target: T1, Bad; experiment: yeast two-hybrid assay, human Bad bait with Bad prey; format: binding; settings: yeast strain EGY191, LexA-Bad bait, B42 prey, FIG. 3
# Excerpt: as §1, §2
# Bak = target: T2, Bak; experiment: yeast two-hybrid assay, human Bad bait with Bak prey; format: binding; settings: yeast strain EGY191, LexA-Bad bait, B42 prey, FIG. 3
# Excerpt: as §1, §2
# Bcl-2 = target: T4, Bcl-2 (Homo sapiens, UniProt P10415); experiment: yeast two-hybrid assay, human Bad bait with Bcl-2 prey; format: binding; settings: yeast strain EGY191, LexA-Bad bait, B42 prey, FIG. 3
# T4 construct: expressed in transfected cells; host or cells: yeast strain EGY191
# T4 sequence (P10415 1-218 limits assumed): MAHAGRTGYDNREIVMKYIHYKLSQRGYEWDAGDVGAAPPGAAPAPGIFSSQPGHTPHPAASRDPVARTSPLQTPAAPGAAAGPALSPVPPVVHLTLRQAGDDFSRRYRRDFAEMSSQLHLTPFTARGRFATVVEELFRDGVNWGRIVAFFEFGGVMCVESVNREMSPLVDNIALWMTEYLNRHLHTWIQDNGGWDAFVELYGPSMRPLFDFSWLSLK
# Excerpt: as §1, §2
# Bcl-XL = target: T5, Bcl-XL (Homo sapiens, UniProt Q07817); experiment: yeast two-hybrid assay, human Bad bait with Bcl-XL prey; format: binding; settings: yeast strain EGY191, LexA-Bad bait, B42 prey, FIG. 3
# T5 construct: expressed in transfected cells; host or cells: yeast strain EGY191
# T5 sequence (Q07817 1-212 limits assumed): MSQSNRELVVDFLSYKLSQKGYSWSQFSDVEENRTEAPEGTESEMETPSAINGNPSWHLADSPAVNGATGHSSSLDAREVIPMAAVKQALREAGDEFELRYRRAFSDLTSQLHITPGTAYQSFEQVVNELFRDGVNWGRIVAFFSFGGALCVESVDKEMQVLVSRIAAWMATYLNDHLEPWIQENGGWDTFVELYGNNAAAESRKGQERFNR
# Excerpt: as §1, §2
# GST-Bcl-2 = GST-Bcl-2 (Homo sapiens, UniProt P10415); experiment: ELISA-type binding assay, plate-coated 6HBad with GST-Bcl-2; settings: anti-GST detection, FIG. 4
# Chain of GST-Bcl-2 (P10415 whole entry): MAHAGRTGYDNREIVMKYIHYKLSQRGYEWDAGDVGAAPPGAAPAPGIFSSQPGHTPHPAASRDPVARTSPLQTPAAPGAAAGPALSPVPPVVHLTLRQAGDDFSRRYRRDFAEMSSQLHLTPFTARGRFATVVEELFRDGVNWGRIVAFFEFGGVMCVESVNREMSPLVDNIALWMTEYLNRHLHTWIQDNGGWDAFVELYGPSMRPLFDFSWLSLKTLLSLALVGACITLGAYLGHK
# GST-Bcl-XL = target: T6, GST-Bcl-XL (Homo sapiens, UniProt Q07817); experiment: ELISA-type binding assay, plate-coated 6HBad with GST-Bcl-XL; settings: FIG. 4
# T6 construct: made in house; host or cells: E. coli XL1-Blue (pGEX constructs); E. coli BL21 pLysS (6HBad)
# T6 sequence (Q07817 1-211 limits assumed): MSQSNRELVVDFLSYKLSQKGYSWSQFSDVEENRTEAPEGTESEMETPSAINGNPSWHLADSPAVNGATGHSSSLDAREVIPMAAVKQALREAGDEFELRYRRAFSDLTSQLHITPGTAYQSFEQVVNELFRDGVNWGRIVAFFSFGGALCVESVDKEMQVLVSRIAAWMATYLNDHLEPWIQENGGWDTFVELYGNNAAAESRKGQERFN
# Excerpt: To generate fusion proteins for these screening assays, Bad and Bcl-xL were cloned into pET-15b (Novagen) and pGEX 4T1 (Pharmacia) vectors, respectively. The pET15b-bad construct was made as follows. Full length bad cDNA was amplified by PCR using cDNA BM1 as template and primers containing NdeI (5′) and XhoI (3′) restriction sites (5′ primer: 5′-GGGAATTCCATATGTTCCAGATCCCAGAG-3′ (SEQ ID NO: 10)); 3′ primer: 5′-TACAGTCTCGAGTCACTGGGAGGGGGCGGAGCT-3′ (SEQ ID NO: 11)). The PCR product was then digested with NdeI/XhoI and ligated into the NdeI and XhoI sites of pET15b. The above primer sequences were chosen such that the bad ORF sequence would be in frame with 5′ vector sequence encoding a six residue Histidine tag. The final construct was termed pET-15 6H Bad. […]
Molecule,protein-protein interaction with Bax (beta-galactosidase activity) (Bax),protein-protein interaction with itself (beta-galactosidase activity) (Bad),protein-protein interaction with Bak (beta-galactosidase activity) (Bak),protein-protein interaction with Bcl-2 (beta-galactosidase activity) (Bcl-2),protein-protein interaction with Bcl-XL (beta-galactosidase activity) (Bcl-XL),interaction with GST-Bcl-2 in ELISA (GST-Bcl-2),relative binding affinity to GST-Bcl-xL in ELISA (GST-Bcl-XL; compared with GST-Bcl-2 and GST-Bax),"interaction with GST-Bcl-XL in ELISA (GST-Bcl-XL; plate-coated 6HBad, anti-GST detection)"
B1,no interactions were observed,no interactions were observed,no interactions were observed,interacts,interacts,,,
B2,,,,,,interacts,highest affinity,interacts
